Literature values, collected in article PMC4681696.

Molecular target: p75NTR (Homo sapiens) (UniProt P08138)
UniProt P08138, sequence (P08138 29-250): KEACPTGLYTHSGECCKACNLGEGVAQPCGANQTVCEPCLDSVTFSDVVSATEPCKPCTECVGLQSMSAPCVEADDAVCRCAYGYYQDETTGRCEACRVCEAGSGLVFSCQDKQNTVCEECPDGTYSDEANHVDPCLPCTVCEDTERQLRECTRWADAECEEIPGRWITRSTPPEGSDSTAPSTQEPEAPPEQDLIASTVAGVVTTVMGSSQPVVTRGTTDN

In the case of NGF (from UniProt P01138), the Kd is listed as 7 nM.
